In patent publication US20150111954, “LIN28/LET-7 CRYSTAL STRUCTURES, PURIFICATION PROTOCOLS, AND MOLECULAR PROBES SUITABLE FOR SCREENING ASSAYS AND THERAPEUTICS” (PRESIDENT AND FELLOWS OF HARVARD UNIVERSITY, published 2015):

Key:
[1] = biological target: T1, Lin28a delta-delta (terminal truncations and 9-residue linker deletion) (Mus musculus, UniProt Q8K3Y3 SEQ:4-151); test: structure; crystal structure 2.9 A, Zn; conditions: tags: His6 removed by TEV; domain-swapped dimer in crystal); stem-loop with 3' single-stranded GGAG
T1 chain: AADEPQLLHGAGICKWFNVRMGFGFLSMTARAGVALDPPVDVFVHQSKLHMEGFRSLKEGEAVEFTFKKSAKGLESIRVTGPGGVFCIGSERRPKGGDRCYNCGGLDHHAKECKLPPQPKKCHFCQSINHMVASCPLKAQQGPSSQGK
Protocol: (§1) Crystals of all three complexes were produced by vapor diffusion, using the hanging drop method. Concentrated complexes (10 mg/mL) were mixed 1 μL:1 μL with reservoir solution, and crystals grew overnight. Reservoir solution contained 0.6M NaH₂PO₄, 1.4M K₂HPO₄ and 5% glycerol for preEM-let-7d and preEM-let-7f-1 complexes; for preEM-let-7g, it contained 0.1M Tris pH 8.0, 32% w/v PEG 4000, and 0.2M Sodium Acetate. Crystals were harvested with mother liquor supplemented with 20% glycerol and frozen in liquid nitrogen. Diffraction data was indexed and scaled using XDS (Kabsch, 2010) and SCALA (Evans, 2006) in a workflow provided by autoPROC (Vonrhein et al., 2011). Experimental phases were obtained for Lin28:pre-let-7d complex by anomalous scattering from zinc atoms (SAD), using HKL2MAP (Schneider and Sheldrick, 2002) and AutoSol (Terwilliger et al., 2009). The structures of Lin28: preEM-let-7f-1 and Lin28: preEM-let-7g were solved by molecular replacement with Lin28: preEM-let-7d as search model using Phaser (McCoy et al., 2007). Density modification and NCS averaging over 6 or 2 copies were performed with PHENIX (Adams et al., 2010) to obtain electron density maps for model building with COOT (Emsley and Cowtan, 2004) and PHENIX was used for further refinement. […]

[2] = biological target: T2, Lin28b (Homo sapiens, UniProt Q6ZN17 Q6ZN17:1-250); test: EMSA; effects of preEM point mutations equivalent to mouse Lin28a; conditions: stem-loop with 3' single-stranded GGAG
T2 sequence: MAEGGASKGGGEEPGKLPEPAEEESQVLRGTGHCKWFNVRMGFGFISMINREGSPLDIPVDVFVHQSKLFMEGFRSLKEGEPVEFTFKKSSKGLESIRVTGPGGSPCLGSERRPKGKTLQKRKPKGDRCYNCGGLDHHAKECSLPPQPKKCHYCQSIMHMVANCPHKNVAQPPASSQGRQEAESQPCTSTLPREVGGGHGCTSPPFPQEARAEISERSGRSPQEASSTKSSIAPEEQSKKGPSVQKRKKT

[3] = biological target: T3, Lin28a (Homo sapiens, UniProt Q9H9Z2 Q9H9Z2:2-209); test: as above; conditions: stem-loop with 3' single-stranded GGAG
T3 sequence: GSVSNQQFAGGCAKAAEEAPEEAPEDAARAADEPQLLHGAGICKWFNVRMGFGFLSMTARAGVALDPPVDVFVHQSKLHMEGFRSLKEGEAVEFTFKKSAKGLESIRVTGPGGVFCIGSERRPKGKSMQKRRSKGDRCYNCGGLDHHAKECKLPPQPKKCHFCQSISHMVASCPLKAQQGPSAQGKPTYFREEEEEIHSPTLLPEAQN

[4] = biological target: T4, Lin28a (16-184), CSD-linker-CCHCx2 (Mus musculus, UniProt Q8K3Y3 SEQ:4-172); test: EMSA; minimal preE, sufficient for high-affinity binding; complex also studied by NMR; conditions: tags: His6 removed by TEV (GSG remnant); stem-loop with 3' single-stranded GGAG
T4 chain: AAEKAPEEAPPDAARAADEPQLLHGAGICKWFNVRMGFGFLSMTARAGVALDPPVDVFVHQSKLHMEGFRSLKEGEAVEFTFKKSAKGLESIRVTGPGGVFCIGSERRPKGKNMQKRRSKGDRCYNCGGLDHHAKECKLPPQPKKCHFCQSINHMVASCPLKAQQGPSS

[5] = biological target: T5, Lin28a full-length (Mus musculus, UniProt Q8K3Y3 Q8K3Y3:1-209); test: EMSA; conditions: tags: His6 removed by TEV; label: 5'-32P; stem-loop with 3' single-stranded GGAG
T5 sequence: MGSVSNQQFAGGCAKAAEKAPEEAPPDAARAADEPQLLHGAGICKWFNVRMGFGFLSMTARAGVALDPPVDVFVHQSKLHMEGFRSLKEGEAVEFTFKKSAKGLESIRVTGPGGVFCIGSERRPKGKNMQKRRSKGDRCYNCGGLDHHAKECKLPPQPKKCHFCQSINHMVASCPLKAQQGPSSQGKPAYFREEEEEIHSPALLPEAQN
Protocol: (§2) FIG. 9. Domain mapping and structural analysis of Lin28 protein, Related to FIG. 2. (A) EMSA of Lin28 truncations. […] Full-length preE-let-7d was used as probe, titrated with protein constructs indicated (left to right: 8 nM, 33 nM, 130 nM, 520 nM, 2.1 μM, 8.3 μM, 33.3 μM). (B) ¹⁵N-NOESY of the linker region. Homonuclear 1H/1H NOE spectral strips belonging to the residue numbers marked in red were taken from a 3D 15N-selected NOESY-HSQC, and only the amide region is shown for inter-residue backbone NOEs. Diagonal peaks are marked with a diagonal line and crosspeaks are marked with a cross. The linker region is missing inter-residue NOEs, while CCHC has amide-amide interactions evident from crosspeaks. (C) Plot of secondary shifts for Ca, CP, and C′ vs. residue number. Domain boundaries, consistent as in FIG. 2A, are marked with dashed grey lines. (D) EMSA of protein linker deletion constructs. Increasing amounts of protein (Lin28 35-187, with or without 9-residue internal deletion in the linker region) were added to radioactively labeled fragment of pre-let-7f-1 indicated. The concentrations of protein in each lane are as follows: 5 nM, 20 nM, 78 nM, 313 nM, 1.2 μM, 5 μM, 20 μM. (E) In vivo processing assay of pri-miR-122 and pri-miR-16, similar to main FIG. 2D. 293T cells (12 well) were co-transfected with Lin28 (100 ng) with pri-miR-122 or pri-miR-15-16 (750 ng). […]

[6] = biological target: T1, Lin28a delta-delta (terminal …); test: EMSA; 9-residue linker deletion supports binding; slightly lower affinity than full-length suggested; conditions: tags: His6 removed by TEV; domain-swapped dimer in crystal); label: 5'-32P; stem-loop with 3' single-stranded GGAG
Source text: FIG. 2. Linker between CSD and CCHCx2 is flexible. See also FIG. 9. (A) Longitudinal (R1) and transverse (R2) relaxation rates and the ratio (R2/R1), plotted against the residue number. Relatively more dynamic regions are marked with a light yellow box. (B) Alignment of internal deletions in the linker, indicated with the number of amino acids deleted on left (SEQ ID NOS 84-87, respectively, in order of appearance). (C) EMSAs with preE-let-7d as probe, mixed with increasing concentrations (0.005, 0.02, 0.08, 0.3, 1.2, 5, 20 μM) of linker deletion constructs of Lin28(16-184): *, free probe; **, complex. (D) Quantitative RT-PCR results for in vivo levels of mature let-7g. Lin28Δ is truncated at both N and C termini. Lin28ΔΔ has both of the terminal extensions and the linker removed. The standard deviation is calculated from triplicate experiments; U6 RNA levels were used for normalization. (E) and (F) Western blots of Trizol bottom layer for transfections shown in (D).

[7] = biological target: T4, Lin28a (16-184), CSD-linker-CCHCx2; test: EMSA; comparable affinity to full-length; Kd bins only in figure; 20 mM Tris 7.5, 100 mM NaCl, 50 uM ZnCl2, yeast tRNA; conditions: tags: His6 removed by TEV (GSG remnant); label: 5'-32P; stem-loop with 3' single-stranded GGAG
Protocol: as §2

[8] = biological target: T1, Lin28a delta-delta (terminal …); test: EMSA; probe is a pre-let-7f-1 fragment; conditions: tags: His6 removed by TEV; domain-swapped dimer in crystal); label: 5'-32P
[9] = biological target: T1, Lin28a delta-delta (terminal …); test: structure; crystal structure 2.8 A, Zn; conditions: tags: His6 removed by TEV; domain-swapped dimer in crystal); stem-loop with 3' single-stranded GGAG
Protocol: as §1

[10] = biological target: T1, Lin28a delta-delta (terminal …); test: structure; crystal structure 2.0 A, Zn; conditions: tags: His6 removed by TEV; domain-swapped dimer in crystal); stem-loop with 3' single-stranded GGAG
Protocol: as §1

B1: preEM-let-7d (ssRNA)
RNA: GGGCAGAGAUUUUGCCCGGAG
**Q.** Does B1 bind [1]?
**A.** binds

**Q.** Does B1 bind [2]?
**A.** binds

**Q.** Does B1 bind [3]?
**A.** binds

**Q.** Does B1 bind [4]?
**A.** binds

B2: preE-let-7d (ssRNA)
RNA: UUAGGGCAGAGAUUUUGCCCACAAGGAGUU
**Q.** Does B2 bind [5]?
**A.** binds

**Q.** Does B2 bind [6]?
**A.** binds

**Q.** Does B2 bind [7]?
**A.** binds

B3: preE-let-7f-1 (ssRNA)
RNA: GUGGGGUAGUGAUUUUACCCUGUUUAGGAGAU
**Q.** Does B3 bind [8]?
**A.** binds

B4: preEM-let-7f-1 (ssRNA)
RNA: GGGGUAGUGAUUUUACCCUGGAG
**Q.** Does B4 bind [9]?
**A.** binds

B5: preEM-let-7g (ssRNA)
RNA: GGGGUCUAUGAUACCACCCCGGAG
**Q.** Does B5 bind [10]?
**A.** binds
